{"source": "paper PMC7708447", "about": "“Ultrasensitive antibody-aptamer plasmonic biosensor for malaria biomarker detection in whole blood”", "binders": {"B1": {"name": "malaria 2008s aptamer (ssDNA)", "DNA": "CTGGGCGGTAGAACCATAGTGACCCAGCCGTCTAC"}}, "key": {"[1]": {"target": "Plasmodium vivax lactate dehydrogenase (PvLDH) (Plasmodium vivax, UniProt Q4PRK9 1-316)", "assay": "antibody-aptamer sandwich plasmon-enhanced fluorescence", "conditions": "protein: recombinant; chain copies: 4"}, "[2]": {"target": "Plasmodium falciparum lactate dehydrogenase (PfLDH) (Plasmodium falciparum, UniProt Q76NM3 1-316)", "assay": "antibody-aptamer sandwich plasmon-enhanced fluorescence; PfLDH captured by anti-PLDH on AuNP array; spiked human blood; 0.1 uM aptamer; sandwich LOD 18 fM (not a Kd); association time constant 45 +/- 15 min; Aptamer step: PBS (10 mM NaCl, 10 mM NaH2PO4, 10 mM Na2HPO4, 1 mM MgCl2, pH 7.1), 0.1 uM Cy5-aptamer, 2 h in the dark; temperature not stated; analyte spiked in human blood", "conditions": "protein: recombinant; chain copies: 4; label: 5'-Cy5"}}, "data": [{"binder": "B1", "values": [{"measurement": "binding result", "setting": "[1]", "value": "no binding"}, {"measurement": "binding result", "setting": "[2]", "value": "binds"}]}]}
